Here are results for one substance from article PMC3884763.

Usually stoichiometry N stands for a count of units in the complex or per binding partner.

The assay concerns the target Cavernularia obesa green fluorescent protein (CoGFP), wild-type, with a histidine tag at the N-terminus (Cavernularia obesa). Nature of the assay: SEC. Background: In gel filtration, larger molecules generally elute earlier.

Consider “Cavernularia obesa green fluorescent protein (CoGFP), wild-type, with a histidine tag at the N-terminus (natural protein)”, for which the stoichiometry N amounted to 2.
